For one molecule, EC50 results are on record in US20160333110A1 (CHIOME BIOSCIENCE, published 2016).

The target in this test is T1, recombinant protein of the hTROP-2 extracellular region (human, UniProt P09758 27-263).
T1 construct: produced with baculovirus, purified on Ni Sepharose; also called hTROP-2 EC; hTROP-2-EC-His; not shown: C-terminal myc-His tag from pcDNA4/myc-His A
T1 sequence: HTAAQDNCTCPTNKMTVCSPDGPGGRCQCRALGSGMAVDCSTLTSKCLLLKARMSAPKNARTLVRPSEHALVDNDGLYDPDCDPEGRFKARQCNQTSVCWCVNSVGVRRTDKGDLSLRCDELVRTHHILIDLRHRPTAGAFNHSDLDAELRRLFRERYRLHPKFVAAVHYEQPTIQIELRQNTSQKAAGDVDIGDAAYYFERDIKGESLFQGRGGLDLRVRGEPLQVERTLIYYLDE
Put plainly: monovalent ELISA: antibody captured by anti-mouse IgG, hTROP-2 EC titrated in solution, detected with anti-His. Here is the method: Thereafter, coating was carried out at 4° C. overnight. Thereafter, the reaction product was washed with a washing buffer (PBS containing 0.05% Tween 20), and a blocking buffer (PBS containing 2% skim milk and 0.05% Tween 20) was then added thereto (200 μL/well) to block it (at room temperature for 1 hour). The resultant was washed with a washing buffer. […] The mixture was left at rest at room temperature for 1 hour, and the reaction product was then washed with a washing buffer. The recombinant protein of the hTROP-2 extracellular region described in Example 3 (hTROP-2 EC) was diluted with an ELISA buffer to prepare samples with a concentration range from 5 μg/mL to a series of three-fold dilutions (10 samples). The thus obtained sample was added in each amount of 50 μL/well to the plate. The mixture was left at rest at room temperature for 1 hour, and the reaction product was then washed with a washing buffer. […] The obtained mixture was left at rest at room temperature for 1 hour, and it was then washed with a washing buffer. […] The obtained mixture was left at rest at room temperature for 1 hour, and it was then washed with a washing buffer. […] Using Microplate reader Model 550 (BioRad), an absorbance at 450 nm was measured with an absorbance at 655 nm used as a reference.
On the technique in general: An ELISA detects its analyte on a solid surface through an enzyme-linked reagent.

B1: anti-hTROP-2 monoclonal antibody clone K5-70 (antibody, mouse IgG2a, V domains shown)
VH: QVQLQQPGAELVRPGASVKLSCKASGYTFTIYWINWVKQRPGQGLEWIGNIYPSDSYTNYNQKFKDKATLTVDKSSSTAYMQLSSPTSEDSAVYYCTRTSMADYWGQGTTLTVSS
VL: DILLTQSPAILSVSPGERVSFSCRASQSIGTSIHWYQQRTNGSPRLLIKYASESISGIPSRFSGSGSGTDFTLSINSVESEDIADYYCQQSNSWPFTFGSGTKLEIK
notes: mouse IgG2a, hybridoma FERM BP-11251; also called K5-70 antibody; mouse K5-70 antibody
What is called EC50 is the concentration at which the effect is half-maximal. Take B1: the half-maximal effective concentration (EC50) stood at 7 ng/mL.
